For one molecule, Kd results are on record in publication PMC12658140 (2025).

Common to all, as to assay: BLI
The target in assay [1] is H3 stem with T32HA2 (influenza A virus H3N2 …).
The target of assay [2] is H3 stem with R32HA2 (influenza A virus H3N2 …).
For assay [3], the target named is H3 stem with I32HA2 (influenza A virus H3N2 …).

B1: 240-14 IgA 2F02 Fab (Fab, V domains shown)
VH: EVQLLESGGGLVQPGGSLRLSCAASGFTFSTYAMSWVRQAPGKGLEWVSTISGSGGSTYDAESVKGRFTISRDNSKNTLYLQMNSLRAEDTAVYYCAKEGGDFWSGYYANWFDPWGQGTLVTVSS
VL: QSALTQPRSVSGSPGQSVTISCTGTRSDVGGYNYVSWYQQHPGKAPKVIIYDVKKRPSGVPDRFSGSKSGNTASLTISGLQAEDEADYYCSAFAGSHTLFGGGTKVTVL
For the molecule B1, the Kd in assay [1] was determined as 17 nM; in assay [2] it was 28 nM; in assay [3] it was 22 nM.

The Kd is the equilibrium constant for the complex coming apart. Read a high Kd as a looser complex.
